In US20020039573A1 one finds γ-IFN Elispot, ICD-specific CD8+ T cell line on Fibro/ICD stimulators pre-incubated with antibody (50 µg/mL) (Elispot spots per well), γ-IFN Elispot, clone 17D5 on Fibro/ICD stimulators, antibody and γ-IFN Elispot, clone 17D5 on Fibros-H2N stimulators, antibody data, which are given here for 3 substances.

Assay in all cases: cell-based or functional assay
In test [1] the target is HLA-A2 (human).
Test [2] addresses HLA-B and -C.
In test [3] the target is HLA-A, -B and -C.

For monoclonal antibody BB7.2, in test [1], the γ-IFN Elispot, ICD-specific CD8+ T cell line on Fibro/ICD stimulators pre-incubated with antibody (50 µg/mL) (Elispot spots per well) came out at 213; the γ-IFN Elispot, clone 17D5 on Fibro/ICD stimulators, antibody at 25 µg/mL (Elispot spots per well) was found to be 165; the γ-IFN Elispot, clone 17D5 on Fibros-H2N stimulators, antibody at 25 µg/mL (Elispot spots per well) turned out to be 98.

Regarding monoclonal antibody BB123.2, in test [2], the γ-IFN Elispot, ICD-specific CD8+ T cell line on Fibro/ICD stimulators pre-incubated with antibody (50 µg/mL) (Elispot spots per well) came out at 5; the γ-IFN Elispot, clone 17D5 on Fibro/ICD stimulators, antibody at 25 µg/mL (Elispot spots per well) is 1; the γ-IFN Elispot, clone 17D5 on Fibros-H2N stimulators, antibody at 25 µg/mL (Elispot spots per well) was 0.

As to monoclonal antibody W6/32, in test [3], the γ-IFN Elispot, ICD-specific CD8+ T cell line on Fibro/ICD stimulators pre-incubated with antibody (50 µg/mL) (Elispot spots per well) was determined as 4; the γ-IFN Elispot, clone 17D5 on Fibro/ICD stimulators, antibody at 25 µg/mL (Elispot spots per well) was 3; the γ-IFN Elispot, clone 17D5 on Fibros-H2N stimulators, antibody at 25 µg/mL (Elispot spots per well) turned out to be 0.
